Results on 94 variants are retold here after the supplement of paper PMC10567573.

The labels stand for the following.
B1: AUP1 (parent)
chain: EGLLRFSSWPFSIQDVVQPLTLQV
B2: TRIM43 (parent)
chain: NRFRVEISFHFEVTNHNIRLFEDV
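Further: lentivirally expressed fusions sorted by FACS into six bins by GFP to DsRed ratio, PSI derived from sequencing read proportions per bin multiplied by bin number.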

The variants in one data set derive from B1. As to the kind of experiment: protein stability index of a GFP-peptide fusion (GPS, HEK-293T) (PSI 1-6); higher = more stable. The conditions noted are these: c terminus: a fixed tail appended.
With EGLDRFSSWPFSIQDVVQPLTLQV [L4D], the protein stability index amounted to 2.08.

In the case of EGLNRFSSWPFSIQDVVQPLTLQV [L4N], the protein stability index was 1.52.

For EGLIRFSSWPFSIQDVVQPLTLQV [L4I], the protein stability index was 3.16.

Consider EGLCRFSSWPFSIQDVVQPLTLQV [L4C], for which the protein stability index turned out to be 3.27.

Consider EGLSRFSSWPFSIQDVVQPLTLQV [L4S], for which the protein stability index came to 1.27.

On to EGLGRFSSWPFSIQDVVQPLTLQV [L4G], for which the protein stability index was 4.

With EGLKRFSSWPFSIQDVVQPLTLQV [L4K], the protein stability index worked out at 1.19.

In the case of PGLLRFSSWPFSIQDVVQPLTLQV [E1P], the protein stability index worked out at 1.82.

As to SGLLRFSSWPFSIQDVVQPLTLQV [E1S], the protein stability index was found to be 2.31.

Regarding MGLLRFSSWPFSIQDVVQPLTLQV [E1M], the protein stability index amounted to 1.43.

CGLLRFSSWPFSIQDVVQPLTLQV [E1C]: the protein stability index came to 3.48.

In the case of TGLLRFSSWPFSIQDVVQPLTLQV [E1T], the protein stability index was 1.8.

For NGLLRFSSWPFSIQDVVQPLTLQV [E1N], the protein stability index stood at 2.31.

For the variant RGLLRFSSWPFSIQDVVQPLTLQV [E1R], the protein stability index was 4.19.

Turning to IGLLRFSSWPFSIQDVVQPLTLQV [E1I], the protein stability index was 1.02.

In the case of YGLLRFSSWPFSIQDVVQPLTLQV [E1Y], the protein stability index worked out at 2.78.

Consider EGLLRFSGWPFSIQDVVQPLTLQV [S8G], for which the protein stability index was 2.57.

For the variant EGLLRFSTWPFSIQDVVQPLTLQV [S8T], the protein stability index worked out at 2.62.

For EGLLRFSFWPFSIQDVVQPLTLQV [S8F], the protein stability index worked out at 3.08.

EGLLRFSEWPFSIQDVVQPLTLQV [S8E]: the protein stability index was 2.23.

With EGLLRFSAWPFSIQDVVQPLTLQV [S8A], the protein stability index was 2.17.

For EGLLRFSCWPFSIQDVVQPLTLQV [S8C], the protein stability index amounted to 2.25.

With EGALRFSSWPFSIQDVVQPLTLQV [L3A], the protein stability index amounted to 1.76.

For the variant EGCLRFSSWPFSIQDVVQPLTLQV [L3C], the protein stability index stood at 4.98.

For EGVLRFSSWPFSIQDVVQPLTLQV [L3V], the protein stability index came to 2.22.

For the variant EGPLRFSSWPFSIQDVVQPLTLQV [L3P], the protein stability index was determined as 2.44.

Turning to EGKLRFSSWPFSIQDVVQPLTLQV [L3K], the protein stability index is 2.2.

Consider EGELRFSSWPFSIQDVVQPLTLQV [L3E], for which the protein stability index was 2.41.

For the variant EGDLRFSSWPFSIQDVVQPLTLQV [L3D], the protein stability index was determined as 1.83.

For EGTLRFSSWPFSIQDVVQPLTLQV [L3T], the protein stability index came to 4.12.

As for EGLLRWSSWPFSIQDVVQPLTLQV [F6W], the protein stability index came out at 2.94.

For EGLLRASSWPFSIQDVVQPLTLQV [F6A], the protein stability index was 1.15.

Consider EGLLRPSSWPFSIQDVVQPLTLQV [F6P], for which the protein stability index stood at 2.07.

With EGLLRSSSWPFSIQDVVQPLTLQV [F6S], the protein stability index was 1.24.

On to EGLLRTSSWPFSIQDVVQPLTLQV [F6T], for which the protein stability index is 1.06.

As for EGLLRQSSWPFSIQDVVQPLTLQV [F6Q], the protein stability index was 1.65.

With EGLLRESSWPFSIQDVVQPLTLQV [F6E], the protein stability index was found to be 1.36.

EGLLRKSSWPFSIQDVVQPLTLQV [F6K]: the protein stability index turned out to be 1.7.

Consider EGLLRHSSWPFSIQDVVQPLTLQV [F6H], for which the protein stability index was found to be 1.34.

EGLLRYSSWPFSIQDVVQPLTLQV [F6Y]: the protein stability index was 1.33.

Turning to EGLLRNSSWPFSIQDVVQPLTLQV [F6N], the protein stability index turned out to be 1.4.

Regarding EGLLRLSSWPFSIQDVVQPLTLQV [F6L], the protein stability index came to 2.09.

As to EGLLRVSSWPFSIQDVVQPLTLQV [F6V], the protein stability index was 1.73.

As for EGLLRDSSWPFSIQDVVQPLTLQV [F6D], the protein stability index is 1.46.

EGLLEFSSWPFSIQDVVQPLTLQV [R5E]: the protein stability index was 4.2.

As to EGLLKFSSWPFSIQDVVQPLTLQV [R5K], the protein stability index was 1.37.

Take EGLLFFSSWPFSIQDVVQPLTLQV [R5F]: the protein stability index came out at 3.67.

Turning to EGLLGFSSWPFSIQDVVQPLTLQV [R5G], the protein stability index was found to be 3.46.

For EGLLDFSSWPFSIQDVVQPLTLQV [R5D], the protein stability index amounted to 1.73.

On to EGLLMFSSWPFSIQDVVQPLTLQV [R5M], for which the protein stability index was 1.56.

With EGLLSFSSWPFSIQDVVQPLTLQV [R5S], the protein stability index came out at 2.64.

EGLLWFSSWPFSIQDVVQPLTLQV [R5W]: the protein stability index came to 3.31.

On to EGLLTFSSWPFSIQDVVQPLTLQV [R5T], for which the protein stability index was found to be 3.1.

Consider EELLRFSSWPFSIQDVVQPLTLQV [G2E], for which the protein stability index is 2.63.

Regarding ECLLRFSSWPFSIQDVVQPLTLQV [G2C], the protein stability index worked out at 3.51.

Turning to ERLLRFSSWPFSIQDVVQPLTLQV [G2R], the protein stability index came to 2.83.

For EHLLRFSSWPFSIQDVVQPLTLQV [G2H], the protein stability index worked out at 3.65.

Regarding EGLLRFMSWPFSIQDVVQPLTLQV [S7M], the protein stability index is 2.94.

Regarding EGLLRFRSWPFSIQDVVQPLTLQV [S7R], the protein stability index came to 1.33.

EGLLRFNSWPFSIQDVVQPLTLQV [S7N]: the protein stability index was 2.32.

As for EGLLRFYSWPFSIQDVVQPLTLQV [S7Y], the protein stability index was found to be 3.72.

EGLLRFHSWPFSIQDVVQPLTLQV [S7H]: the protein stability index amounted to 2.13.

For EGLLRFISWPFSIQDVVQPLTLQV [S7I], the protein stability index was determined as 3.04.

For the variant EGLLRFWSWPFSIQDVVQPLTLQV [S7W], the protein stability index came out at 1.83.

As to EGLLRFPSWPFSIQDVVQPLTLQV [S7P], the protein stability index came to 2.2.

Take EGLLRFDSWPFSIQDVVQPLTLQV [S7D]: the protein stability index was 2.32.

For EGLLRFSSNPFSIQDVVQPLTLQV [W9N], the protein stability index is 1.42.

Regarding EGLLRFSSAPFSIQDVVQPLTLQV [W9A], the protein stability index was determined as 3.6.

As for EGLLRFSSMPFSIQDVVQPLTLQV [W9M], the protein stability index was found to be 2.45.

EGLLRFSSLPFSIQDVVQPLTLQV [W9L]: the protein stability index amounted to 2.97.

EGLLRFSSKPFSIQDVVQPLTLQV [W9K]: the protein stability index amounted to 2.62.

On to EGLLRFSSDPFSIQDVVQPLTLQV [W9D], for which the protein stability index worked out at 1.58.

Turning to EGLLRFSSPPFSIQDVVQPLTLQV [W9P], the protein stability index was 1.28.

With EGLLRFSSIPFSIQDVVQPLTLQV [W9I], the protein stability index amounted to 2.27.

Consider EGLLRFSSEPFSIQDVVQPLTLQV [W9E], for which the protein stability index was found to be 1.66.

Regarding EGLLRFSSCPFSIQDVVQPLTLQV [W9C], the protein stability index stood at 3.91.

For the variant EGLLRFSSQPFSIQDVVQPLTLQV [W9Q], the protein stability index turned out to be 2.

The next data set covers variants of B2. Described as above. Conditions: c terminus: a fixed tail appended.
For NRFRVEISFHFEVENHNIRLFEDV [T14E], the protein stability index worked out at 2.04.

As for NRFRVEISFHFEVHNHNIRLFEDV [T14H], the protein stability index is 3.49.

As for QRFRVEISFHFEVTNHNIRLFEDV [N1Q], the protein stability index is 3.07.

Turning to CRFRVEISFHFEVTNHNIRLFEDV [N1C], the protein stability index amounted to 3.11.

Take RRFRVEISFHFEVTNHNIRLFEDV [N1R]: the protein stability index stood at 2.37.

Turning to TRFRVEISFHFEVTNHNIRLFEDV [N1T], the protein stability index amounted to 1.62.

As for NRFRVEISFHFEVTNLNIRLFEDV [H16L], the protein stability index worked out at 1.82.

On to NRFRVEISFHFEVTNCNIRLFEDV [H16C], for which the protein stability index was determined as 3.06.

Take NRFRVEISFHFEVTNVNIRLFEDV [H16V]: the protein stability index was 1.07.

Consider NRFRVEISFHFEVTNYNIRLFEDV [H16Y], for which the protein stability index was 2.9.

Consider NRFAVEISFHFEVTNHNIRLFEDV [R4A], for which the protein stability index was found to be 3.36.

NRFNVEISFHFEVTNHNIRLFEDV [R4N]: the protein stability index stood at 2.75.

As to NRFCVEISFHFEVTNHNIRLFEDV [R4C], the protein stability index was found to be 2.91.

On to NRFKVEISFHFEVTNHNIRLFEDV [R4K], for which the protein stability index turned out to be 2.96.

As for NRFTVEISFHFEVTNHNIRLFEDV [R4T], the protein stability index was 2.08.

NRFRVEISFHFEVTNHNIRLFEYV [D23Y]: the protein stability index was 2.39.

Regarding NRFRVEISFHFEVTNHNIRLFEFV [D23F], the protein stability index was found to be 3.88.
